{"source": "paper PMC10580588", "target": "FLAG-tagged full-length senataxin (SETX) (human) (UniProt Q7Z333)", "sequence (Q7Z333 whole entry)": "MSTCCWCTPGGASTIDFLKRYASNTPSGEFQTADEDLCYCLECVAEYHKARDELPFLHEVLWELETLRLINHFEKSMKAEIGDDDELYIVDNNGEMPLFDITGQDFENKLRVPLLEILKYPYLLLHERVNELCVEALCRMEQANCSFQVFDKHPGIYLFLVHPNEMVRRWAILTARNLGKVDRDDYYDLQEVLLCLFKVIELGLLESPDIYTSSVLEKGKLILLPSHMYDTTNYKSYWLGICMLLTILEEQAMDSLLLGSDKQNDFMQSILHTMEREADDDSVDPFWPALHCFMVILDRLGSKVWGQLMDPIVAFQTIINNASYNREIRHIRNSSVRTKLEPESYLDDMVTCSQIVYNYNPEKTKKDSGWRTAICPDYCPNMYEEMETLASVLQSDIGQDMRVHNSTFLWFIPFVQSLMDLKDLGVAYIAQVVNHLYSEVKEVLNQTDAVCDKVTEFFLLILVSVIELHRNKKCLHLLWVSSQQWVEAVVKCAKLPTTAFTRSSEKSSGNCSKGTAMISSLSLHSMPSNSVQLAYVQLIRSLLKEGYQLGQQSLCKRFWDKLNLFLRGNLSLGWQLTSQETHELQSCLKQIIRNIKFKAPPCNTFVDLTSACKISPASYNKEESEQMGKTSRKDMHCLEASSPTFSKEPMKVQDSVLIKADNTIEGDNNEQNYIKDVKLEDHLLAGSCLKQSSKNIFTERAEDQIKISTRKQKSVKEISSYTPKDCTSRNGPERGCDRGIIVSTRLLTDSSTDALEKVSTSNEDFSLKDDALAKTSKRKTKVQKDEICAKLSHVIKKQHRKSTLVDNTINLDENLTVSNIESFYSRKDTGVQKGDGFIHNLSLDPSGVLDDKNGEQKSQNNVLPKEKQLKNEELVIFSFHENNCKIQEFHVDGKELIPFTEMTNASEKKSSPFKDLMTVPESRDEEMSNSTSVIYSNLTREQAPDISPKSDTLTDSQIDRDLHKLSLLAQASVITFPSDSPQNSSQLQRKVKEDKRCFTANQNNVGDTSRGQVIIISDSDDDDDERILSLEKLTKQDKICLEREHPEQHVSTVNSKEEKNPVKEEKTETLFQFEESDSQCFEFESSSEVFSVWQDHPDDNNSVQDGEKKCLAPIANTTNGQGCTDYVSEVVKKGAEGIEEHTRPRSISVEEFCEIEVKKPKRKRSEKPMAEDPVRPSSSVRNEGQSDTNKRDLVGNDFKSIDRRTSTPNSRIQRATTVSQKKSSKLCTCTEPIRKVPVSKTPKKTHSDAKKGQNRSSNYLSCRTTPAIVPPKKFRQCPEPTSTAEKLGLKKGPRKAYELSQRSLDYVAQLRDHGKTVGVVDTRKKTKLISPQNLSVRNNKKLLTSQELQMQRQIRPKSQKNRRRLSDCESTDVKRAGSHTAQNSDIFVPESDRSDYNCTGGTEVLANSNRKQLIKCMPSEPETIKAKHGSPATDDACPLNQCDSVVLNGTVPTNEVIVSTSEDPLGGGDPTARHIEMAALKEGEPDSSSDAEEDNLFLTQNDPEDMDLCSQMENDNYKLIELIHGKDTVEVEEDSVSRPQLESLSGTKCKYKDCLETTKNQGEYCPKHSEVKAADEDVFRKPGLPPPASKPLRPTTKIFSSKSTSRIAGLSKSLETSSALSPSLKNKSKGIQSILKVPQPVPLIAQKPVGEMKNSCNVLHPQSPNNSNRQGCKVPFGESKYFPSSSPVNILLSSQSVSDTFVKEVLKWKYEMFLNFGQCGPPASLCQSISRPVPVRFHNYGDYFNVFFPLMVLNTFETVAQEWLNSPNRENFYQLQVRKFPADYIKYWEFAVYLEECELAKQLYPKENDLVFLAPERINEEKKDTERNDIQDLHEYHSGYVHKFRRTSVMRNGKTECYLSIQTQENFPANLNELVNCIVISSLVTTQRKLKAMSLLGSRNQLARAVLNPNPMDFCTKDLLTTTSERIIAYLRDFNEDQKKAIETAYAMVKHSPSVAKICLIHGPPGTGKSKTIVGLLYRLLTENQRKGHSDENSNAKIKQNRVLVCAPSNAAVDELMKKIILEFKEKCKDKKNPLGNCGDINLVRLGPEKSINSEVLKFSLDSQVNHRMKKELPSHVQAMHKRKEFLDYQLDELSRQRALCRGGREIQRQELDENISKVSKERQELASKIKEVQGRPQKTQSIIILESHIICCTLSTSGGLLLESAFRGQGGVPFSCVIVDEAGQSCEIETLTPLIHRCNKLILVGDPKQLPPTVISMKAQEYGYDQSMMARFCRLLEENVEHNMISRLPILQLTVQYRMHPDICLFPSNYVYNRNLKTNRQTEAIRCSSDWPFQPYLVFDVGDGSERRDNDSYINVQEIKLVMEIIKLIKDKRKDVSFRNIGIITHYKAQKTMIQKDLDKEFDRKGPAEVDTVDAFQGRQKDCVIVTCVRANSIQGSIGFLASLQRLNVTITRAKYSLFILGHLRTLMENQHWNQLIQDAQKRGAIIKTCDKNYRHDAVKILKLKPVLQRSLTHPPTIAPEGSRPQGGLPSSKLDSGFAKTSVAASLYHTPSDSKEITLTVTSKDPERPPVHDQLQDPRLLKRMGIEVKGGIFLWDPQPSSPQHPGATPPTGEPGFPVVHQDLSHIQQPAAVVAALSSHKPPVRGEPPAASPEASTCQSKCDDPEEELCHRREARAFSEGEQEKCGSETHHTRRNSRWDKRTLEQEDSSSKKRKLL", "experiment": "co-IP; SETX immunoprecipitated, the IP'd material treated with or without RNase A; bands measured by densitometry; IgG only IP as negative control", "data": [{"substance": "GFP-GR30 (peptide)", "values": [{"measurement": "percent reduction of the co-IP band upon RNase A treatment", "value": 32, "unit": "%"}]}]}
